{"source": "the DeepSol protein solubility set", "data": [{"experiment": "soluble on expression in E. coli; label from the status in PepcDB or PDB records", "values": [{"sequence": "MGSDKIHHHHHHMKASIEQLEPYVPEKPLATLQAELGLTELVRLSANENPYGTSPKVATAVKNWDFTQSNRYPDADAQELRQAVAQQQGIDPNSIVFSVGLDEMIVMLSRTFLATNDQVLVSAPTFSEYGLHAEIEGGQLISVPTLPNDHVNFEGLMKAITPHVKMVWLCNPNNPTGTVESLAAIEAFVQQVPPETMVLIDEAYIDFTPGAAQVTAMQLPAKYPNVVVMRTFSKAYGLANFRIGYAVFNTKYAATMQTIRLPYNVNSLAQVAALAAIDDPNFVKQTVQKNATERAKWMAFFDDQGVTYDQSGANFIFFKYPSATQLADYLVHHGYLIRTGLRPGWLRLTVGTANDNQQLQQLIREFKA", "soluble on expression in E. coli": "not soluble"}, {"sequence": "MASQTNQTVVDTKKIETENPPKPQVPASSCRKRVKDDNATFFANLKDHMDEFIHASMDEHKTCFKNTMDKIFGSFSKAEAVAEKQIEAKEVVEIHSPLQTAVTK", "soluble on expression in E. coli": "soluble"}, {"sequence": "MELDVFVGNTTVLDEDIYQLWLDGHSVSDVVRQRMDAGVLLECEASPDVLQSDTIDQFRTFQMCERLLQSPSKVANQLLFQIPSDQQAMLIERYYEFDSVFAREVLGKKLSKGTKKDLDDVSAKTGIALKSCRRQFDNFKRVFKVVEELKGPLVENIQRHFLLSDDLARDYATIVFFANSRFETGKRKLQYLSFQDFAFCAGQLISYWTVGAVDNMIEDMDVDLEKDFLHDLKDLKVLVNDKDLLDQHKSLVCGQLRGKIKVFNEMEASFKNLSRALVNIASKLTHAKDVRDLFIDLVEKFIEPCRSDKWTSGDLRLFLTHYSTSVHTLEAFRHQVIWDRYMGVIKSCILKMYHD", "soluble on expression in E. coli": "soluble"}, {"sequence": "MGSDKIHHHHHHMDLRQIRTFVYIAELRSYTRAAAFLHVSQPALSRQMRLLEEELRLKLFLRHGHGVELTNEGVAFFARCRDVLSEFEQLRHDFRSTGANKAVMGLVSVGLPAPATRFATPKLLHAARKSYPGLSVRFAEGFSALLHEWLLSGSLDLAVLFGSNTPKLLTSLPVLVEDLVAISAATKTSRKKNFVNAQDLQNTPLILPHRPHILRELIDSLHLKKVEILEVDSTSLMIELARVGDGTTILPAGSAEQSIRAGHVVALPIINPTLSWQVSICYSSVRPLSVGARVVLDLMRREIAQKVTSGEWLSGRLIRPGTEMTEGLDAAP", "soluble on expression in E. coli": "not soluble"}, {"sequence": "MSLNAIHRILMTTDGSITAIIEAVTQKKVEVETLEQKIIRADRELAELLEIDEGDEVNYRVVYLRANGEIYAKAISFTPLKRLENSFREDLMRADIPIGKIMRKHNIEARREIRWSRVEEADLALAKELGIADRRVISRNYNIIHRGKVLINITEFFPMERFRIEGYHHHHH", "soluble on expression in E. coli": "soluble"}, {"sequence": "GMIDFTKSKQYTLSIRLSTDGFSFSIYNPINDNSQSLFEKEVDTSLSLTANLKNVFHESDFLSYSYKRVNIMIASKRFTMIPLELFEEEQAELLFYHNHQKRENEIVMYNILKKNNVVIIFGIDKSTYTFLNEQYPEARFYSQSTPLIEYFSIKSRLGNSKKMYASVRKDAIDIYCFERGQLLLANSFECMQTEDRIYYLLYVWKQLEFNQERDELHLTGTLSDKETLMNELKKFILQVFIMNPANNIDMQALLTCE", "soluble on expression in E. coli": "soluble"}, {"sequence": "MKVISNAEFGGERPLFESHDLRLENVIIRAGESAIKECSNIEAVDCRFEGNYPFWHVHGFVIDRCFFDVGGRSALWYSDNLKMTNTRIDAPKMFREMHDIEIENVEIKDADEVFWRCKNLDIKNLKLHGGTYPFMFSSNIRIDGLESDSKYVFQYVKNVELRNAKITTKDAFWEVENVTIYDSELNGEYLGWHSHNLRLVNCHITGEQPLCYAHDLVLENCTFGPDCDRAFEYSSVQATIKGAIGGVKNPRTGCITAESYGEIILDENIKAPADCKLKLWDEKTCFTD", "soluble on expression in E. coli": "soluble"}, {"sequence": "MGSDKIHHHHHHMTEGMNAGLAMPPAALETSGGANQVGVRAYNERLVMSLVRRHGSLSKAEIARRSGLSAQTVTVIMRVLEREKLLVRGEPVRGRVGQPSVPMRLNPDAVYSFGVKIGRRSANLVLMDFVGTIRHEVRRTYPYPMPGLLLDFIVGGISDIEGRLSVAERARIAGVGIAAPFELWSWAEETGAPSEEMDVWRETDLKADVAARIGYPVFIQNDATSACAAELVFGVGPHYPDFVYFFLGSFVGGGIVLNSSLFSGRTGTAGAVGPLPVQRRDGKTVQLLKIASIFVLENLLRDYGQDSQSLWYSPSDWVDYGEPLEIWIRDTAAALAQAIVAAASIIDFSAAVIDGGFPQWVRQRLVVAIQEAARDLDLQGVLMPEIVEGAVGHQARSVGGASLPLFSRYLLDQNVLFKELL", "soluble on expression in E. coli": "not soluble"}, {"sequence": "YNSLSFLMRHDMIAGFHWFGPWGRDTFISMPGVLLVSGRYNEARRVLEHYAERIQDGMIPNTQDVEALRFSADTSLWFIYAVQKYLEYAGDDDFARQMLVPIKSIITAYIKGNSMFHLDDDLVTLTGSPLTWMDAMVSGKPVTPRIGKPIEINALWYNALSFYSRTAHDITGEDTEMFSKLARRIKQKFRAKFIKGDAVLDVSDPDDMKFRPNFLIPYFLPYPLLNDRKFVDLAWEKLVTPYGLRTLSPDDPDYVPTYSGPQPERDMAYHNGTVWPWLAGIFITAAVKTGYDKHALLEKFAPLFSMSRIPEIFDGSGTGIPKGCIMQAWSHGEIARAYFEDLRGGRS", "soluble on expression in E. coli": "not soluble"}, {"sequence": "MKIDASRRGILTGCWRKASNGIRPPWSGDESHFLTHCTRCDACINACENNILQRGTGGYPSVNFKNNECSFCYACAQACPESLFSPRHTRAWDLQFTIGDACLAYQSVECRRCQDSCEPMAIIFRPTLSGIYQAQLNSQLCNGCGACAASCPVSAITAEYLHAH", "soluble on expression in E. coli": "not soluble"}, {"sequence": "MTKDRQIKKTKTAIYSAFIALLQKKEYSKITVRDMITLANVGRSTFYAHYESKEMLLKELCEELFHHLFRQKRNVTFEDYLVHILKHFEQNKDSIATLLLSNDPYFLLRFKNELEHDVYPNLRCKYIDKTTIPEVFLKQFVLSSFIETLKWWLHQRQRMSANELLKYYLELIK", "soluble on expression in E. coli": "soluble"}, {"sequence": "GSMALTQVETEIVPVSVDGETLTVEAVRRVAEERATVDVPAESIAKAQKSREIFEGIAEQNIPIYGVTTGYGEMIYMQVDKSKEVELQTNLVRSHSAGVGPLFAEDEARAIVAARLNTLAKGHSAVRPIILERLAQYLNEGITPAIPEIGSLGASGDLAPLSHVASTLIGEGYVLRDGRPVETAQVLAERGIEPLELRFKEGLALINGTSGMTGLGSLVVGRALEQAQQAEIVTALLIEAVRGSTSPFLAEGHDIARPHEGQIDTAANMRALMRGSGLTVEHADLRRELQKDKEAGKDVQRSEIYLQKAYSLRAIPQVVGAVRDTLYHARHKLRIELNSANDNPLFFEGKEIFHGANFHGQPIAFAMDFVTIALTQLGVLAERQINRVLNRHLSYGLPEFLVSGDPGLHSGFAGAQYPATALVAENRTIGPASTQSVPSNGDNQDVVSMGLISARNARRVLSNNNKILAVEYLAAAQAVDISGRFDGLSPAAKATYEAVRRLVPTLGVDRYMADDIELVADALSRGEFLRAIARETDIQLR", "soluble on expression in E. coli": "soluble"}, {"sequence": "AHHHHHHGSSKNYKKHQAYIAGRDKMKVAVITGASRGIGEAIAKALAEDGYSLALGARSVDRLEKIAKELSEKHGVEVFYDYLDVSKPESVEEFARKTLAHFGDVDVVVANAGLGYFGRLEELTEEQFHEMIEVNLLGVWRTIKAFLNSLKRTGGVAIVVTSDVSARLLPYGGGYVATKWAARALVRTFQIENPDVRFFELRPGAVDTYFGGSKAGKPKEQGYLKPEEVAEAVKYLLRLPKDVRVEELMLRSIYQKPEY", "soluble on expression in E. coli": "soluble"}, {"sequence": "MQKALETKRLTLSYGETIIIDELNLEIPKGEITIFIGSNGCGKSTLLRSLARLLKPTTGDILLDNQAIQSMQTKQIARQMAILPQGPQAPEGLTVLQLVKQGRYPYQTWLKQWSEKDEEMVQNALAATGMTEFAERDVHALSGGQRQRAWIAMTLAQDTDIILLDEPTTYLDMTHQIEVLDLLFELNETEQRTIVMVLHDLNLACRYADNIVAIQDKQIYAQGKPEEVVDEKLVRDVFRMECQISTDPLFGTPLCIPHGKGRRVRKEVAHAMR", "soluble on expression in E. coli": "not soluble"}, {"sequence": "MSLSRQIRYYGTGTQKAYDELKQVLPEARILRMDVDTTKRKGAHEKILTKFGRHEADILLGTQMIAKGLDFPNVTLVGVLNADTSLNLPDFRSSERTFQLLTQVAGRAGRANKPGEVLIQTYNPNHYAIQLAREQDYEAFYRYEMRIRKALSYPPYYFTVGLTLSHKDEQEVIKKSYEIVTLIKEGLTDKIKILGPTPKPVARTHNLYHYQIIIKYRFEDQLEIVLNHILDLTQAKENKKLRLIIDHEPQSEGHHHHHH", "soluble on expression in E. coli": "not soluble"}, {"sequence": "MRKGGKGYFLTIRRDYVTVSYYLKYVKDIPLEFREIIDIFNNHKFEQYTQEQINKYTYTCNVRKIEDIDKYDEKNPTKFHEYTRGEACRCQTYNYFKDDEFIKRAKLKCIYYNMLFTESATVYSRHCPIIDLMHFAVYDIEYPPIFNTIVNITIEEYYYNDVSSVLNNKSDLVTKEKKYQLNDTITEIRDDYFDLWLFLKGETHGKRTLVNLSNDYIVIPSSPINNRDVIASDITRNCGLSQNSPLLKGCNYSSICNIMHPCLRKAMMLPKYMFDLSGKTCGKLGVSLNT", "soluble on expression in E. coli": "not soluble"}, {"sequence": "ASSGIVKMVSPTSKIEPCIVSVTYGSMTLNGLWLDDKVYCPRHVICSSSNMNEPDYSALLCRVTLGDFTIMSGRMSLTVVSYQMQGCQLVLTVSLQNPYTPKYTFGNVKPGETFTVLAAYNGRPQGAFHVTMRSSYTIKGSFLCGSCGSVGYVLTGDSVKFVYMHQLELSTGCHTGTDFTGNFYGPYRDAQVVQLPVKDYVQTVNVIAWLYAAILNNCAWFVQNDVCSTEDFNVWAMANGFSQVKADLVLDALASMTGVSIETLLAAIKRLYMGFQGRQILGSCTFEDELAPSDVYQQLAGV", "soluble on expression in E. coli": "soluble"}, {"sequence": "ACTQPSDWVPPAKNDALVIALKKVIGGRLSDAFHIRDKLQRRDAIAAVKDDVIQQLAGRLEVEGWNLAELLKEFGELEYRTMRDALLDTKVRIDGRSLEAVRP", "soluble on expression in E. coli": "not soluble"}, {"sequence": "MGSDKIHHHHHHMLIEIPNVFSKQEVSHLREQLDARRWIDGNQTSGAMATTRKRNQQLDKDDPVAVALGQQIMDRLLAHPQFVSAALPLQFYPPLFNRYQGGETFGYHIDNAIRSTPDGMIRTDLSATLFLSEPENYQGGELVIQDTYGQQSIKLSAGSLVLYPSSSLHQVTPVLSGERTAAFMWLQSMVRDEGQRRLLFQLDQSIQSLTAQTAAEQELFNLSGVYHNLLRRWSEL", "soluble on expression in E. coli": "not soluble"}, {"sequence": "MFTGLVEAIGVVKDVQGTIDNGFAMKIEAPQILDDCHTGDSIAVNGTCLTVTDFDRYHFTVGIAPESLRLTNLGQCKAGDPVNLERAVLSSTRMGGHFVQGHVDTVAEIVEKKQDGEAIDFTFRPRDPFVLKYIVYKGYIALDGTSLTITHVDDSTFSIMMISYTQSKVIMAKKNVGDLVNVEVDQIGKYTEKLVEAHIADWIKKTQA", "soluble on expression in E. coli": "soluble"}, {"sequence": "MGSDKIHHHHHHLDPFASPQNLDKELRSLLAQASSNLCDWFAESASQGPMPYSFELPEVYPAKEGVSNDVLLSELQLLMDGSYRPSHPGSLAHLDPPPLSASIAGELICAGLNNNLLADELSPSLSSLERNLCKWFCHKLGLGDLSGGVAASGGSLSNLMALVMARNNSGLETDPKAVFFASHDCHVSFSKAFRIMGLKQESLQKVSTDENGALNISSLRTSLNKIKSQGKKCFAVVATAGTTVRGAIDPLSEIAKFCKKENVWFHVDGSIGGIYGLSEMTSEIVQGLGFADSLTINPQKLLGIPKTSSLLLVANKNHLSSTFSTGLPYVEPISGNDFHGGELGIQGTRSAETLKLWIGLRQLGEEGIEKILLGSIKRRCYLESIIDRSKFKIISGPLHLLAFTPINYSSSQSSDWSLKTRNSLLANKFMLSRPMYGHRYYLKAVMGNPNTKFDDLKMLANLINHSIS", "soluble on expression in E. coli": "not soluble"}]}]}
